In article PMC3257528 (The Journal of Cell Biology, 2011):

B1: ATL2 (6His-tagged cytoplasmic / soluble domain, ATL2 1–467) (Homo sapiens) (protein)
chain: MAEGDEAARGQQPHQGLWRRRRTSDPSAAVNHVSSTTSLGENYEDDDLVNSDEVMKKPCPVQIVLAHEDDHNFELDEEALEQILLQEHIRDLNIVVVSVAGAFRKGKSFLLDFMLRYMYNKDSQSWIGGNNEPLTGFTWRGGCERETTGIQVWNEVFVIDRPNGTKVAVLLMDTQGAFDSQSTIKDCATVFALSTMTSSVQVYNLSQNIQEDDLQHLQLFTEYGRLAMEEIYQKPFQTLMFLIRDWSYPYEHSYGLEGGKQFLEKRLQVKQNQHEELQNVRKHIHNCFSNLGCFLLPHPGLKVATNPSFDGRLKDIDEDFKRELRNLVPLLLAPENLVEKEISGSKVTCRDLVEYFKAYIKIYQGEELPHPKSMLQATAEANNLAAVAGARDTYCKSMEQVCGGDKPYIAPSDLERKHLDLKEVAIKQFRSVKKMGGDEFCRRYQDQLEAEIEETYANFIKHNDGKN
B2: ATL2 (6His-tagged cytoplasmic / soluble domain, ATL2 1–467) (Homo sapiens; E380R/K372E) (protein)
chain: MAEGDEAARGQQPHQGLWRRRRTSDPSAAVNHVSSTTSLGENYEDDDLVNSDEVMKKPCPVQIVLAHEDDHNFELDEEALEQILLQEHIRDLNIVVVSVAGAFRKGKSFLLDFMLRYMYNKDSQSWIGGNNEPLTGFTWRGGCERETTGIQVWNEVFVIDRPNGTKVAVLLMDTQGAFDSQSTIKDCATVFALSTMTSSVQVYNLSQNIQEDDLQHLQLFTEYGRLAMEEIYQKPFQTLMFLIRDWSYPYEHSYGLEGGKQFLEKRLQVKQNQHEELQNVRKHIHNCFSNLGCFLLPHPGLKVATNPSFDGRLKDIDEDFKRELRNLVPLLLAPENLVEKEISGSKVTCRDLVEYFKAYIKIYQGEELPHPESMLQATARANNLAAVAGARDTYCKSMEQVCGGDKPYIAPSDLERKHLDLKEVAIKQFRSVKKMGGDEFCRRYQDQLEAEIEETYANFIKHNDGKN

What was measured:
[1] = target: ATL2 (6His-tagged cytoplasmic / soluble domain, ATL2 1–467) (Homo sapiens, UniProt Q8NHH9); experiment: SEC dimer shift; format: binding; details: 2 mM GMPPNP (SEC, cross-linking) or 1 mM (EM); 30 min RT
[2] = substrate: Nc1nc2c(ncn2[C@@H]2O[C@H](COP(=O)(O)OP(=O)(O)OP(=O)(O)O)[C@@H](O)[C@H]2O)c(=O)[nH]1; experiment: malachite green phosphate release, Lineweaver-Burk; format: biochemical, Homo sapiens; details: 1 µM enzyme, 5, 10, 20 µM GTP, 37 °C

Molecule | SEC dimer shift (Superdex 200), BMOE cross-linking, negative-stain EM [1] | Km [2] [µM]
Nc1nc2c(ncn2[C@@H]2O[C@H](COP(=O)(O)OP(=O)(O)NP(=O)(O)O)[C@@H](O)[C@H]2O)c(=O)[nH]1 [GMPPNP, guanosine 5′-[β,γ-imido]triphosphate] | wild-type ATL2 formed dimers in the presence, but not in the absence, of GMPPNP | –
B1 | – | 34
B2 | – | 44
